The term EC50 denotes the midpoint of the concentration-response curve.

For assay [1], the target named is T1, human LILRB4 (human, UniProt Q8NHJ6 22-259, limits assumed).
T1 construct: also called leukocyte immunoglobulin-like receptor subfamily B member 4
Put plainly: ELISA.

The target of assay [2] is T1, human LILRB4. Description: ELISA; upper end of the range, tied to #216-1 by Table 1.
The target of assay [3] is T1, human LILRB4. Description: ELISA; lower end of the range, tied to #214 by Table 1. A general note: In an ELISA, binding on a coated surface is turned into a signal by an enzyme label.

B1: anti-LILRB4 rabbit monoclonal antibody #78 (antibody, V domains shown)
VH: QSLQESGGRLVTPGTPLTLTCTVSGIDLSVYLMSWVRQSPGKGLEYIGFINSAGITAYATWAKGRFIISKTSTTVDLKVTSPTTEDTATYFCARNWIRLDLWGQGTLVTISS
VL: ELVLTQTPASVSAAVGGTVTISCQSSESIYKNYLSWFQQKPGQPPKLLIYETSKLASGVPSRFSGSGSGTQFTLTISDVQCDDAATYYCLGGYTNGRDTIFGGGTELEIK
notes: Rabbit monoclonal antibody; also called mAb 78; bin 1
With B1, a half-maximal response with human LILRB4 [1] (EC50) required 0.0808 nM.

B2: anti-LILRB4 rabbit monoclonal antibody #216-1 (antibody, V domains shown)
VH: EQSVEESGGGLVKPGASLTLTCIASGFSFSSSYVMCWVRQAPGKGLELIACIHAGGSGSTYYASWAKGRFTISKTSSTTVTLQMTSLTAADTATYFCARYNYHFYYIGDYSDLWGPGTLVTVSS
VL: ELVMTQTPSSVSAAVGGTVTIKCQASEDIDSYLAWYQQKPGQRPKVLIYRASTLASGVPSRFKGSGSGTEFTLTISGLECDDAATYYCQQGWSNDVGSNAFGGGTKVEIK
notes: Rabbit monoclonal antibody
In turn, B2 yielded an EC50 with human LILRB4 [2] of 0.3 nM.

B3: anti-LILRB4 rabbit monoclonal antibody #214 (antibody, V domains shown)
VH: QSVKESGGRLVTPGTPLTLTCTVSGFSLSSYWMHWVRQAPGKGLEWVGVVSVSGNFYYATWAKGRFTISKTSTTVDLKITSPTIEDTAFYFCTMSFALWGQGTLVTISS
VL: ELVMTQTASPVSAAVGGTVTINCQSSQSVYSNNNLGWLKQKPGQPPKELIYYASTLASGVPSRFKGSGSGTQFTLTISDLECDDAATYYCVGGYGCSSADCSVFGGGTEVEIK
notes: Rabbit monoclonal antibody
In the case of B3, in the assay with human LILRB4 [3], it took 0.05 nM to reach a half-maximal effect (EC50).

The values above are taken from patent US20180086829A1 (published 2018).
